The DeepSol protein solubility set

Assay: soluble on expression in E. coli; label from the status in PepcDB or PDB records

Sequence | soluble on expression in E. coli
IKDPQTGAPVPLRALINNVSGYVIKTEMYTEVKNAKGEWVFKSLGKPGSMHLRPIATPYPVKEWLQPKRYKAHLMGTTYVYDFPELFRQASSSQWKNFSADVKLTDDFFISNELIEDENGELTEVEREPGANAIGMVAFKITVKTPEYPRGRQFVVVANDITFKIGSFGPQEDEFFNKVTEYARKRGIPRIYLAANSGARIGMAEEIVPLFQVAWNDAANPDKGFQYLYLTSEGMETLKKFDKENSVLTERTVINGEERFVIKTIIGSEDGLGVECLRGSGLIAGATSRAYHDIFTITLVTCRSVGIGAYLVRLGQRAIQVEGQPIILTGAPAINKMLGREVYTSNLQLGGTQIMYNNGVSHLTAVDDLAGVEKIVEWMSYVPAKRNMPVPILETKDTWDRPVDFTPTNDETYDVRWMIEGRETESGFEYGLFDKGSFFETLSGWAKGVVVGRARLGGIPLGVIGVETRTVENLIPADPANPNSAETLIQEPGQVWHPNSAFKTAQAINDFNNGEQLPMMILANWRGFSGGQRDMFNEVLKYGSFIVDALVDYKQPIIIYIPPTGELRGGSWVVVDPTINADQMEMYADVNARAGVLEPQGMVGIKFRREKLLDTMNRLDDKYRELRSQLSNKSLAPEVHQQISKQLADRERELLPIYGQISLQFADLHDRSSRMVAKGVISKELEWTEARRFFFWRLRRRLNEEYLIKRLSHQVGEASRLEKIARIRSWYPASVDHEDDRQVATWIEENYKTLDDKLKGLKLESFAQDLAKKIRSDHDNAIDGLSEVIKMLSTDDKEKLLKTLK | soluble
MSLSVPAAAPEDSVISAEETTTGSAVTNVQFSNEQVITENGKYKVSKLAPSLSFLPSNVELCCSVDAKSGYALCCDTDNVYVWPFLSSETHPSFVRIPLHDEEYESWSRPPLCCFTWPSVLERDLKSSPGLFLVNSRSGDIQFYEDVDTVSQVASFLTQTKRHKSVLKLRDGEYVENLINAEPAGILLSTNYGRVEFCTIRDANGKPFVSLKQTIIKCQVGIFSSMSKSKRVVSLKLGEISGKGERIVSILTQGGRYQVWNLSSVGNCYKKIDLNVQSEISQAVLEHFPLATSTLKLLDCHPLSGDSDAYLFLSFLAESNETHYLLSTIIVDEDTNSFAIFSTYRLNTYTRPLSDEFAPRLIVPTAYTKEHLPITSVYTLFSDAAVLTQTSSKLDSNYPFKRKWEDIIRFNKDMKVLGYDCNSSSLYITDGRTCALKLETFEKYENSDFQEIRFIKSHVDQYVYFGGQSTDEGHHHHHH | soluble
MSSDKNGDILRPLSDSEVDELLDLYKVKFGIRNFHYLLLYNQRKWDRQLSEAQIPRNDLNHISLRKQFYTHRRGNFRTWGTYVSLHRDIVQSVSFFSWQPDGAAELWECLEQTQLIEWTQGALLTNVDLGFCNRVKELAVSRGVTAIQPRQCFGMVLSHEDAFCAKVPDLPSEFEIRRLRAEDAAMVHDSWPNKGEGSLTYLQALVRFNKSLGICRSDTGELIAWIFQNDFSGLGMLQVLPKAERRGLGGLLAAAMSREIARGEEITLTAWIVATNWRSEALLKRIGYQKDLVNEWIKLVPNSSLEHHHHHH | soluble
MSGPTDTSTQPQGFSMTRLRLIGSAVLLSLSSMAMADSASQAEQFLKLVHADKLTVPVYAQVQQMLAQRFAQAKAPESKKAVLERYQAKANAELDRAIGWDKIKPELIKLYTTNFTESELKDLNAFYQSPLGKKVLEKMPRLTAESAQLTQAKLQGAVEPVNKLMADMDKELGVAAPAQKKK | not soluble
MAHHHHHHMWQHHNLSSPTLGPREAKPTVQTSRRGCMRSDAWCSSLAGGGHDDPSESVPNSRVSPRASSFAPPQRTAPSPTESTSQELFELQNCNHHKQQQKQQLVIRQEDIRDDDFQRLEVLGDGSYSVVVSARHLPTQQLVALKEVSRHRLRELKLEKQLQWEINVHRTLRHPNVVRMLSYYITPQTVVLVLEMCPGGTLLQKLKTMPGGRFDERRASRYVRQAARALTYLHGHGIAHRDLKLENIFLDAHGVARLGDFGWSKALVEPTVEQDLSSHHDNFGTAPCSAAKDVSPLCSGGRGRLTVCGTLDYLSPEMLIGMPHTFKTDVWSLGVMLAEMLTGAPPFYCVSQQDTLNAIREAAPHLGDDVQMSSLARELVLAMLQKNPDARPTMAEVLQHPWTRQNGEKKKKKK | soluble
RKPTALIILDGFGLREETYGNAVAQAKKPNFDGYWNKFPHTTLTACGEAVGLPEGQMGNSEVGHLNIGAGRIVYQSLTRVNVAIREGEFDKNETFQSAIKSVKEKGTALHLFGLLSDGGVHSHMNHMFALLRLAAKEGVEKVYIHAFLDGRDVGPKTAQSYIDATNEVIKETGVGQFATISGRYYSMDRDKRWDRVEKCYRAMVNGEGPTYKSAEECVEDSYANGIYDEFVLPSVIVNEDNTPVATINDDDAVIFYNFRPDRAIQIARVFTNGDFREFDRGEKVPHIPEFVCMTHFSETVDGYVAFKPMNLDNTLGEVVAQAGLKQLRIAETEKYPHVTFFFSGGREAEFPGEERILINSPKVATYDLKPEMSIYEVTDALVNEIENDKHDVIILNFANCDMVGHSGMMEPTIKAVEATDECLGKVVEAILAKDGVALITADHGNADEELTSEGEPMTAHTTNPVPFIVTKNDVELREDGILGDIAPTMLTLLGVEQPKEMTGKTIIK | soluble
MTQSRRTLTERRADELRLAIAEVAFDMFVADGNTSATVERISQAVGIAPRTFYRHFEVKEDVVRPIFTKSSDVIVDALASTGEDVALLEGLVAAFLSQMDGTALTPEARTFLGLMLTTPAYKIRWLDVDPPLRQAVADLLDRRLGLSADPYIHLLAADLIVHAARDAFQHWVSSQEREPTEALLRRSFTLILKGLEHVIPRT | not soluble
MGSDKIHHHHHHMSYITTKNQYITVSNNKIAYRELSKGKSDIPLVMLVHLAATLDNWDPKLLDLLAEQHHVIVLDLPGVGASQGKVAPTIPGMAEQAVSIIKALGYEKINLLGLSMGGFIAQEIVRLDSQLVNRLILAGTGPRGGFEVDKVTGKTFRYMLKAGLERVDPKRYIFYNHDEAGRLEAEKVLGRMGQRSAAHADKDMNVPGFLTQLKAIKRWGREPQDDMTFITQPTLIVNGDKDMQVPTENSYTMHEKIKNSQLIIYPNAGHGSIFQNVEDFSKALLAFLEETNA | not soluble
SPIIPEAARALYYNDGMFEGDIKLRAGRQPARVGAAILGDEYLWSGGVIPYTFAGVSGADQSAILSGMQELEEKTCIRFVPRTTESDYVEIFTSGSGCWSYVGRISGAQQVSLQANGCVYHGTILHALMHAIGFYHEHTRMDRDNYVTINYQNVDPSMTSNFDIDTYSRYVGEDYQYYSIMHYGKYSFSIQWGVLETIVPLQNGIDLTDPYDKAHMLQTDANQINNLYTNECSLR | soluble
IPLKSIEVPFEGELLPGYAIISEDKAQDTLIVVGGGDTSREDLFYMLGYSGWEHDYNVLMVDLPGQGKNPNQGLHFEVDARAAISAILDWYQAPTEKIAIAGFSGGGYFTAQAVEKDKRIKAWIASTPIYDVAEVFRISFSTALKAPKTILKWGSKLVTSVNKVAEVNLNKYAWQFGQVDFITSVNEVLEQAQIVDYNKIDVPSLFLVGAGEDSELMRQSQVLYDNFKQRGIDVTLRKFSSESGADAHCQVNNFRLMHYQVFEWLNHIFKKKD | not soluble
AHHHHHHGSQHPRKIYFVDTSFLTFLSVKFSKNMERLMENTVFIELLRRGKGVNYALGKNWGIDFVLLIKVSYDVSDEGTLRCEVNALRKVSREFDFKNALLITWNSKRRIEREEL | soluble
MSLVISIRRSRHEEGEELVAIWCRSVDATHDFLSAEYRTELEDLVRSFLPEAPLWVAVNERDQPVGFMLLSGQHMDALFIDPDVRGCGVGRVLVEHALSMAPELTTNVNEQNEQAVGFYKKVGFKVTGRSEVDDLGKPYPLLNLAYVGAEGGSHHHHHH | soluble
MGSDKIHHHHHHMALDGYTDQTMSRQAMRAELLDAETELRLAYAWRDQRDERALHRLITAYMRLAISMASKYRRYGAPMNDLIQEASLGLMKAADKFDPDRGVRFSTYAVWWIKASIQDYVMRNWSLVRTGSTSSQKALFFNMRRVQARLEREASQRGEALDAHQLREMVAHDVGVPLSDVEMMEGRLSGSDFSLNATQSADDEGREWIDALEDDSAQAAEVVEGSLDAARLRGWLVSAMQQLNARERFIVTERKLRDVPRTLESLGEELKLSKERVRQLEAAAFAKMRRSLEAQSREVHHFLL | not soluble
SMKQDSRFPNLFILDHPLIQHKLTHMRDKDTSTRTFRELLREITLLMGYEITRNLPITTKRVETPLVEIDAPVIAGKKLAIVPVLRAGVGMSDGLLELIPSARVGHIGVYRADDHRPVEYLVRLPDLEDRIFILCDPMVATGYSAAHAIDVLKRRGVPGERLMFLALVAAPEGVQVFQDAHPDVKLYVASLDSHLDDHAYIVPGLGDAGDRLFGTKN | soluble
MKKAADRPTSAVNGRHESPATSTNNTQNSGTPSLNGQDPLRSTSSSPLFGTEPLPEDDHASCPYCQQDFRKPRVLDCLHSMCEDCIIAQLDGHLQAKSAAIEEKKRATAAMLDCELETPKVKERPTPPGVIRCPICSQESHVGNDVRYVHAMLLDFVRLAEMKEVEVEKMVAHHRKPCTACKSEQEAIAFCDQCSSDLCENCTTAHTVMNLFQGHTVTTFADLRQPGAHPELRQVMCSTHNQHMRYLCAACETAACKQCLEVDHLNHKIIDINELVINAIREDVTSTVDRVEKKYNNSVADMNSLPDKSQQLNEQYEIAKYRVDKHYEELRNSIEEAYQKSVNDLEEARIRQESNIDEMYRKSQVNEARVHDAINFTRRLLTKGNGLELVVSRKKVIQQFGNLSHAIPSHGHQVELEFYTPSKKQIDHFVHQLTGTVIGRVIQPTVKDVGNATAASTDRSERGGSQPGGGRSSSAANPSQQDEWGRPVYSQNPQLGAIGGERKKNTQNGTNGTRGDSNAFGGWPPSSHPPESTTPPPVTGPQTMITGAPTQTAAPIVSQQQLSNLPNAAAMAAAAAGMRPDLVALAANHMDLAALTNGSTNGSQTPLPESIFPAMWNARQGLPAVATPTTTGLSTNASAAYMQQKLAAAQLQALASHRLNPQIMSMNNLRTNQTIQEFLAMNAMGNLSLNPQLTSAAAAALAATAAANSAVTTTASDVGQSQNSANAQRVSDLKVHSVFGTSQQGSTIRELHCPSGFCLSDTDDILIADTNNHRVVVCGPPHPWKIGRPGTDDGQLCFPRKVIALRGEAVRYVVLDKGGDGKTRAQIFEARGEFVKRLNMMALVPRGGIEVSAAAATPNGQLLLVDTAGFVYSIDVDAPRVTFWFDASTQLGEASDVAMFDNLIYITDFKHHCVQVYTSEGKFIRKMGEPSQTPYPIGIDVSKAGEVLVADTHGNHLHVVVFSPEGQHIHSFTHNEFRLSRCVGLRIAKSGHIVTLCKHNHTLFVFKPLILPNGLPVPTPVPHATSLISKFQ | not soluble
MGSDKIHHHHHHMSYQDGKYQTEAEGLHGPVKVATTITGGKISAVEVLVGAGEYQSKANDVIASEIIAAQSTDVDAVSGATVSSNAIMTAVKKALQEASGESQDKTSEELTTDLAIVAAGPAGLAAAVSAAEQGVKILVFEKEKITGGTANMGMGPLGINSKIQRANFNEITVAEALKNQMEYTHYRVNGRLVARLLQIVCLNYRLVGRHGSQVRRGFPLLQGIQRHLAHR | not soluble
MEENTEQRVDLTLFSEKIQELKDQIASVIVGQEQTVDLVLAAILANGHVLIEGVPGVAKTLLARLTARLIDADFSRIQFTPDLMPSDVLGTTVFNMKTNDFDFHQGPIFADIVLVDEINRAPAKTQAALFEVMEERQISIDGITHKMGELYTILATQNPVEQEGTYKLPEAQLDRFLMKITMDYPSLEEEVDILERHHTNASLIKLDDIKPAITKEELLSLRAFMNQVFVDRTLLQYIALIVQQTRTSKAVYLGASPRASVAMLQASKAYALLQGRDFVTPEDIKFVAPYVLQHRLILTAEAEMEGYSPVKVTQRLIDKVEVPKLEHHHHHH | soluble
